The results in this text go back to patent publication US20220033508A1 (ADC THERAPEUTICS, published 2022).

The target in assay [1] is T1, Recombinant human extracellular domain of IL13RA2-6His (27-343) (human, UniProt Q14627 27-343).
T1 construct: also called Human IL13RA2-6His; human IL13Rα2
T1 sequence: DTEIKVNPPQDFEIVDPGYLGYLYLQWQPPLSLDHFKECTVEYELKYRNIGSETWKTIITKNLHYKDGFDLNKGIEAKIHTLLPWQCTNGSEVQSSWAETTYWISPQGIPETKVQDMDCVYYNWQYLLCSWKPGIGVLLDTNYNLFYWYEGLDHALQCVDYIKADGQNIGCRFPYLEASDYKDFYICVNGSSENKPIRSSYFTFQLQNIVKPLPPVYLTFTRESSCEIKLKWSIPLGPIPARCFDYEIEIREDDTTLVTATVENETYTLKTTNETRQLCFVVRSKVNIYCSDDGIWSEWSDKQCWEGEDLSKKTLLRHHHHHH
Nature of the assay: Biacore (SPR), IL13RA2-6His on the sensor, bivalent antibody in solution. The source says:
(§1) Biacore analysis using Human IL13RA2-6His coated sensor was used to calculate apparent affinity constants of the Clone 47 variants. A dilution series of the antibody variants were applied to the IL13RA2 sensor surface for 600 seconds […] to calculate the association constant Ka and buffer (HBS-EP+) was then applied for 1800 seconds to calculate the dissociation constant Kd. The ratio of the two constants will provide an apparent KD as the bivalency of the antibody will affect the binding kinetics.
(§2) Binding affinity of a chimeric (Ch) Clone 47 and select humanised variants to human IL13Rα2 was measured on Biacore.

Assay [2] addresses T1, Recombinant human extracellular domain …. Nature of the assay: ELISA on plate-coated human IL13RA2-6His, anti-human-HRP detection. As to the method:
(§3) Recombinant human extracellular domain of IL13RA2-6His (27-343) was obtained from Sino biological (Ref 10350-H08H). 50 μl of 1 μg/ml of human IL13RA2 in PBS was coated overnight at 4° C. on MaxiSorp ELISA plates. The following morning, the plate is washed with PBS/Tween20 0.02%. Each well has 200 μl of Superblock blocking buffer added and incubated at room temperature for 1 hour in an orbital shaker at 120 rpm. A dilution series of each antibody was prepared, with dilutions of each antibody variant in PBS/Tween20 0.02%. The antibodies are added to blocked antigen coated plates and incubated for 1 hour at room temperature with 120 rpm shaking on an orbital shaker. Plates are then washed 3-times with 200 μl of PBS/Tween20 0.02% and 75 μl of secondary antibody (Mouse anti-human-HRP diluted 1 in 4000 in PBS/Tween20 0.02%) is added to the wells and incubated for 1 hour at room temperature with 120 rpm shaking on an orbital shaker. Plates are then washed 3-times with 200 μl of PBS/Tween20 0.02%. To develop the ELISA, 75 μl of TMB-Turbo substrate is added to the wells and incubated at room temperature with 120 rpm shaking on an orbital shaker till a blue colour develops, the reaction is then stopped with the addition of 75 μl of 0.6 N HCl. Plates are read on the Envision at […] and curves are analysed using GraphPad prism software
On the technique in general: An ELISA detects its analyte on a solid surface through an enzyme-linked reagent.

The target is the same in assay [3]. Nature of the assay: ELISA on coated IL13RA2-6His; antibody kept 8 days, column headed 'EC50 4° C.'. As to the method: as §3
(§4) Binding of the variants listed in Table 3 to IL13Rα2 was also assessed by ELISA following incubation at 4° C. or 45° C. for 8 days. […] These binding data also indicate that the humanised variants VHAback/VKA and VHA3/VKA2 have improved stability properties as compared to the chimeric Clone 47.

For assay [4] the target is unchanged. Nature of the assay: ELISA on coated IL13RA2-6His; antibody kept 8 days, column headed 'EC50 45° C.'. As to the method:
as §3, §4

The target in assay [5] is T2, IL13RA2 on NCI-H1299 cells (human, UniProt Q14627).
T2 construct: cell-surface protein on NCI-H1299 cells; Cell-borne form of the target; It is kept apart from m1, which is the recombinant His-tagged extracellular domain; The sheet's title names the antibodies 'anti-IL13RA2 IgG' and the cells 'NCI-H1299 cells'; also called IL13Rα2; Interleukin-13 receptor subunit alpha-2
T2 sequence (receptor chain, looked up): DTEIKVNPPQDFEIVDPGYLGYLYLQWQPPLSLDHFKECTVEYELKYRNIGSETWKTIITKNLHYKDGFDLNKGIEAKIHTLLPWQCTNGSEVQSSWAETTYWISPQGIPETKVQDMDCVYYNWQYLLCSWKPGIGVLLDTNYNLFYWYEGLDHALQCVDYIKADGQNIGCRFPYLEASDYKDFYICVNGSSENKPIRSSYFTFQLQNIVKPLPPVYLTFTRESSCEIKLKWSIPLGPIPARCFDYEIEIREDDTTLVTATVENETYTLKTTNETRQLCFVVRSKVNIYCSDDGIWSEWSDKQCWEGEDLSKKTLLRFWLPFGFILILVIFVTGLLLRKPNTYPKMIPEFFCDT
Nature of the assay: flow cytometry on NCI-H1299 cells, Alexa Fluor 488 anti-human IgG detection. As to the method: NCI-H1299 cells were diluted to 2×10⁶ cells/mL in assay buffer (0.1% BSA/0.1% Sodium Azide in PBS) and 50 μL added per well to a 96-well-plate. The HuCL47 and Clone 47 antibodies were diluted to a top concentration of 40 μg/ml (266 nM) of and diluted 1:4 for 7 dilutions as well as buffer only. 50 μL of the antibody were added to 50 μL of cells to give a concentration of 20 μg/ml. The plate was incubated for 1 hour at room temperature, after which the plate was centrifuged and washed three times. A Goat F(ab′)2 Anti-Human IgG Alexa Fluor 488-conjugated antibody was used (Life Technologies Cat. No. H10120) at a 1 in 250 dilution for detection in assay buffer, 50 μL added to cells and after one hour of incubation at room temperature the cells centrifuged and washed as before, fixed with 7.5% formaldehyde and analysed on the Flow cytometer, with data analysis carried out using FlowJo.
Chimeric clone 47 and HuCL47 were compared in terms of their: binding to NCI-H1299 Cells by standard FACS analysis using NCI-H1299 cells and unmodified purified antibodies. In vitro cytotoxicity analysis was performed on both A375 and NCI-1299 cells, using a pyrollobenzodiazepine dimer (PBD) warhead conjugated to chimeric clone 47 and HuCL47.
Background: In flow cytometry, cells or beads pass a laser one at a time.

Assay [6] deals with T1, Recombinant human extracellular domain …. Nature of the assay: Biacore (SPR), apparent KD, IL13RA2-6His on the sensor, bivalent antibody in solution.
Text: as §1, §2
In general terms: SPR reads the build-up and loss of mass on a sensor chip optically.

B1: Clone 47 VHA / Clone 47 VKA (HuCL47) (antibody, V domains shown)
VH: QVQLVQSGAEVKKPGASVKVSCKASGYTFSNYLMNWVRQAPGQGLEWMGRIDPYDGDIDYNQNFKDRVTITRDTSASTAYMELSSLRSEDTAVYYCARGYGTAYGVDYWGQGTSVTVSS
VL: EIVLTQSPATLSLSPGERATLSCRASESVDNYGISFMNWYQQKPGQAPRLLIYAASRQGSGIPDRFSGSGSGTDFTLTISRLEPEDFAVYYCQQSKEVPWTFGGGTKLEIK
notes: Expressed as IgG in Expi293 cells; also called VHA/VKA; VHANKA
As usually defined, the koff is the first-order rate constant of dissociation. For orientation: kon means the second-order rate constant of association. One may read the EC50 (read off the curve) as the midpoint of the concentration-response curve. By EC50 is commonly meant the concentration giving half of the maximal effect. On to B1, for which the koff in assay [1] came to 1.12e-05 s⁻¹. For the same molecule, the kon in assay [1] is 112000 M⁻¹ s⁻¹. The half-maximal effective concentration (EC50 (read off the curve)) is about 0.05 nM in assay [2] and about 0.04 µg/mL in assay [5]. Moreover, the EC50 turned out to be 0.0178 µg/mL in assay [3] and 0.0184 µg/mL in assay [4]. In assay [6], the Kd was 0.1 nM.

B2: Clone 47 VHA / Clone 47 VKA2 (antibody, V domains shown)
VH: QVQLVQSGAEVKKPGASVKVSCKASGYTFSNYLMNWVRQAPGQGLEWMGRIDPYDGDIDYNQNFKDRVTITRDTSASTAYMELSSLRSEDTAVYYCARGYGTAYGVDYWGQGTSVTVSS
VL: EIVLTQSPATLSLSPGERATLSCRASESVDNYGISFMNWYQQKPGQAPRLLIYAASRQGSGIPDRFSGSGSGTDFTLTISRLEPEDFAVYFCQQSKEVPWTFGGGTKLEIK
notes: Expressed as IgG in Expi293 cells; also called VHA/VKA2
For B2, in assay [1], the koff worked out at 8.2e-06 s⁻¹ and the association rate constant (kon) came to 131000 M⁻¹ s⁻¹. Also, the half-maximal effective concentration (EC50) in assay [3] came out at 0.148 µg/mL. The EC50 in assay [4] was found to be 0.0204 µg/mL. In assay [6], the Kd was found to be 0.06 nM.

B3: Clone 47 VHAback / Clone 47 VKA1 (antibody, V domains shown)
VH: QVQLVQSGAEVKKPGASVKVSCKASGYTFSNYLMNWVRQAPGQGLEWIGRIDPYDGDIDYNQNFKDRATLTVDKSASTAYMELSSLRSEDTAVYYCARGYGTAYGVDYWGQGTSVTVSS
VL: EIVLTQSPATLSLSPGERATLSCRASESVDNYGISFMNWFQQKPGQAPRLLIYAASRQGSGIPDRFSGSGSGTDFTLTISRLEPEDFAVYYCQQSKEVPWTFGGGTKLEIK
notes: Expressed as IgG in Expi293 cells; also called VHAback/VKA1
As to B3, the EC50 in assay [3] came out at 1.01 µg/mL; in assay [4], 0.0128 µg/mL.

B4: Clone 47 VHA / Clone 47 VKA1 (antibody, V domains shown)
VH: QVQLVQSGAEVKKPGASVKVSCKASGYTFSNYLMNWVRQAPGQGLEWMGRIDPYDGDIDYNQNFKDRVTITRDTSASTAYMELSSLRSEDTAVYYCARGYGTAYGVDYWGQGTSVTVSS
VL: EIVLTQSPATLSLSPGERATLSCRASESVDNYGISFMNWFQQKPGQAPRLLIYAASRQGSGIPDRFSGSGSGTDFTLTISRLEPEDFAVYYCQQSKEVPWTFGGGTKLEIK
notes: Expressed as IgG in Expi293 cells; also called VHA/VKA1
For the molecule B4, in assay [1], the koff was 2.65e-05 s⁻¹ and the kon is 124000 M⁻¹ s⁻¹. Moreover, the EC50 in assay [3] was determined as 0.0581 µg/mL. Besides, the EC50 in assay [4] came to 0.0123 µg/mL. Besides, the Kd in assay [6] was 0.21 nM.

B5: Clone 47 VHA3 / Clone 47 VKA2 (antibody, V domains shown)
VH: QVQLVQSGAEVKKPGASVKVSCKASGYTFSNYLMNWVRQAPGQGLEWMGRIDPYDGDIDYNQNFKDRVTITRDKSASTAYMELSSLRSEDTAVYYCARGYGTAYGVDYWGQGTSVTVSS
VL: EIVLTQSPATLSLSPGERATLSCRASESVDNYGISFMNWYQQKPGQAPRLLIYAASRQGSGIPDRFSGSGSGTDFTLTISRLEPEDFAVYFCQQSKEVPWTFGGGTKLEIK
notes: Expressed as IgG in Expi293 cells; also called VHA3/VKA2
B5: the EC50 in assay [3] is 0.0258 µg/mL; in assay [4], 0.0123 µg/mL.

B6: Clone 47 VHAback / Clone 47 VKA (antibody, V domains shown)
VH: QVQLVQSGAEVKKPGASVKVSCKASGYTFSNYLMNWVRQAPGQGLEWIGRIDPYDGDIDYNQNFKDRATLTVDKSASTAYMELSSLRSEDTAVYYCARGYGTAYGVDYWGQGTSVTVSS
VL: EIVLTQSPATLSLSPGERATLSCRASESVDNYGISFMNWYQQKPGQAPRLLIYAASRQGSGIPDRFSGSGSGTDFTLTISRLEPEDFAVYYCQQSKEVPWTFGGGTKLEIK
notes: Expressed as IgG in Expi293 cells; also called VHAback/VKA
Take B6: in assay [1], the koff was 5.3e-06 s⁻¹ and the kon was 115000 M⁻¹ s⁻¹. Besides, in assay [3], the concentration for a half-maximal effect (EC50) turned out to be 0.0456 µg/mL. For the same molecule, the EC50 in assay [4] turned out to be 0.0164 µg/mL. In addition, the Kd in assay [6] is 0.05 nM.

B7: chimeric (Ch) Clone 47 (antibody, V domains shown)
VH: QVQLQQPGAELVRPGASVKLSCKASGYTFSNYLMNWVKQRPEQDLDWIGRIDPYDGDIDYNQNFKDKAILTVDKSSSTAYMQLSSLTSEDSAVYYCARGYGTAYGVDYWGQGTSVTVSS
VL: not shown
notes: Chimeric antibody with the murine Clone 47 variable domains; also called chimeric Clone 47
B7: in assay [1], the koff was determined as 6.58e-05 s⁻¹. The kon in assay [1] came out at 125000 M⁻¹ s⁻¹. Moreover, the “EC50 (read off the curve)” value was about 0.04 nM in assay [2] and about 0.04 µg/mL in assay [5]. Further, the concentration for a half-maximal effect (EC50) turned out to be 0.0777 µg/mL in assay [3] and 0.0168 µg/mL in assay [4]. Moreover, in assay [6], the Kd was determined as 0.53 nM.
